Positions count from the first letter of the chain named. Numbers in names are those of the source.
T1: human LAG-3 on transiently transfected CHO-S cells (human, UniProt P18627 23-525)
T1 construct: also called huLAG-3
T1 sequence: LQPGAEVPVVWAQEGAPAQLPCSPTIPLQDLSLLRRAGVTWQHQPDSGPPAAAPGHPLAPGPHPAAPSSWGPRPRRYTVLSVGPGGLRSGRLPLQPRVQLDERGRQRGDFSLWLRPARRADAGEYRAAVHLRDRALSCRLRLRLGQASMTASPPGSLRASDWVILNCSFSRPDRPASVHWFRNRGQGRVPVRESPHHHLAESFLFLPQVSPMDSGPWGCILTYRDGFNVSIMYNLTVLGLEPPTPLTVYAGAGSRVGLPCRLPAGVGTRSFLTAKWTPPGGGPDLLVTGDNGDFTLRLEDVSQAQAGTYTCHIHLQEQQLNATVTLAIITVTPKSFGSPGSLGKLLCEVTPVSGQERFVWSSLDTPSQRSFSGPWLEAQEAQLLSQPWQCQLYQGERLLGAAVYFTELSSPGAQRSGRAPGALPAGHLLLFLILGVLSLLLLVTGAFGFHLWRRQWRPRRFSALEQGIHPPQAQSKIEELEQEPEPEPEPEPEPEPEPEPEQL

T2: R-PE-labeled recombinant human LAG-3-Fc chimera protein (R&D Systems) (human, UniProt P18627 23-450, conjugated to R-phycoerythrin)
T2 construct: bought; also called LAG-3-Fc-PE; soluble LAG-3; not shown: Fc of the bought chimera, not described
T2 sequence: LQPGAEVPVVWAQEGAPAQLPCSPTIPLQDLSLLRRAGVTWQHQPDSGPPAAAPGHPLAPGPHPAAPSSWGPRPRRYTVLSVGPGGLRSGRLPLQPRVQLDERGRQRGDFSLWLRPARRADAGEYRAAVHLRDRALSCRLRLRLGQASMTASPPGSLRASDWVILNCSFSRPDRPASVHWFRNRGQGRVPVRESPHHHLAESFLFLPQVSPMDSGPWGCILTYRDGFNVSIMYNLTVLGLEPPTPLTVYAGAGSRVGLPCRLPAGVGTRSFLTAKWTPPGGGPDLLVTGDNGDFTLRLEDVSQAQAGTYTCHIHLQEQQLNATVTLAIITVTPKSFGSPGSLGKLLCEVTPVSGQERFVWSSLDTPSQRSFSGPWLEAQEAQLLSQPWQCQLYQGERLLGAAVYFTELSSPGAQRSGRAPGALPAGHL

B1: antibody 15646 (antibody, human IgG1, kappa, L234A L235A, V domains shown)
VH: QVQLQQWGAGLLKPSETLSLTCAVYGGSFSGYYWSWIRQPPGKGLEWIGEINHRGSTNYNPSLKSRVTISVDTSKNQFSLKLSSVTAADTAVYYCTRGEEWESLFFDYWGQGTLVTVSS
VL: EIVLTQSPATLSLSPGERATLSCRASQSISSYLAWYQQKPGQAPRLLIYGASNRATGIPARFSGSGSGTDFTLTISSLEPEDFAVYYCQQRSNWPLTFGGGTRVEIKR
notes: OmniRat-derived human IgG1 with L234A/L235A (LALA), kappa; also called 15646 (15)
B2: antibody 15431 (antibody, human IgG1, kappa, L234A L235A, V domains shown)
VH: QVQLQQSGPGLVKPSQTLSLTCAISGDSVSSNSAAWNWIRQSPSRGLEWLGRTYYRSKWYNDYAVSVKSRITINPDTSKNQFSLQLNSVTPEDTAVYYCARDDDWNDFDYWGQGTLVTVSS
VL: B1 VL with I29V, G50D, R103K
notes: OmniRat-derived human IgG1 LALA, kappa; also called 15431 (38); 15431 (83)
B3: antibody 15532 (antibody, human IgG1, kappa, L234A L235A, V domains shown)
VH: QVQLQQWGAGLLRPSETLSLTCAVYGESFSGYYWNWIRQPPGKGLEWIGEINHSGSTNYNPSLKSRVTISVDTSKTQFSLKLSSVTAADTAVYYCARGWDLLDWNDYWNEYWGQGTLVTVSS
VL: B1 VL with I29V, G50D, R103K
notes: OmniRat-derived human IgG1 LALA, kappa
B4: antibody 15723 (antibody, human IgG1, kappa, L234A L235A, V domains shown)
VH: B1 VH with S35N, R54S, T96A, E100D, E102G, S103E, L104S
VL: B1 VL with I29V, G50A, R103K
notes: OmniRat-derived human IgG1 LALA, kappa; also called 15723 (39)
B5: antibody 15572 (antibody, human IgG1, kappa, L234A L235A, V domains shown)
VH: QLQLQESGPGLVKPSETLSLTCTVSGDSISSSSYYWGWIRQPPGKGLEWIGSIFYSGNTYYNPSLKSRVTISVDTSKNQFSLKLSSVTAADTAVYYCAREDDFLTDYYGAFDIWGQGTMVTVSS
VL: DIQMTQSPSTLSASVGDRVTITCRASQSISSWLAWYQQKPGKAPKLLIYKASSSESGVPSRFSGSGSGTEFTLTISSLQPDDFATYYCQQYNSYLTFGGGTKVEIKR
notes: OmniRat-derived human IgG1 LALA, kappa; also called 15572 (91)
B6: antibody 15595 (antibody, V domains shown)
VH: QVQLVQSGAEVKKPGASVKVSCKVSGYSLTEISMHWVRQAPGKGLEWMGGFDPEDGETIYAQRFQGRVIMTEDTSTDTAYMELSSLRSEDTAVYYCATGGWGPNWFDPWGQGTLVTVSS
VL: DIQMTQSPSSVSASVGDRVTITCRASQGISSWLAWYQQKPGKAPKLLIYAASSLQSGVPSRFSGSGSGTDFTLTISSLQPEDFATYYCQQANSFPFTFGPGTKVDIKR
notes: OmniRat-derived human IgG1 LALA, kappa; also called 15595 (52)
B7: antibody 15011 (antibody, human IgG1, lambda, L234A L235A, V domains shown)
VH: EVQLLESGGGLVQPGGSLRLSCAASGFDFRSYAMMWVRQAPGKGLEWVGGINGEVGGSNTYYAPAVKGRATISRDNSKNTLYLQMNSLRAEDTAVYYCVKGAGACGICNDDIDAWGQGTLVTVSS
VL: SYELTQDPAVSVALGQTVRITCSGAGSYAGSYYYGWHQQKPGQAPVTVIYDNDKRPSNIPDRFSGSSSGNTASLTITGAQAEDEADYYCGSTNDNDDGGLFGSGTKVTVLG
notes: humanized chicken-derived antibody, human IgG1 constant region, lambda (IGLC1*01)

These binders were tested against T1, human LAG-3 on transiently transfected … (assay: flow cytometry on transfected CHO-S cells).

EC50 [nM]	Binder
0.1	B1
0.04	B2
0.07	B3
0.09	B4
0.07	B5
0.05	B6

The binders below were run against T2, R-PE-labeled recombinant human LAG-3-Fc … (assay: flow cytometric competition, LAG-3-Fc-PE binding to MHCII on A375 cells, antibody 20 ug/mL).

LAG-3/MHCII Blocking (%)	Binder
92	B7
49	B1
92	B2
89	B3
55	B4
37	B5
94	B6
